Literature values, collected in publication PMC7101603.

Target: Activin-A mature (Homo sapiens) (UniProt P08476)

## Activin βA pro-peptide pro-peptide (from UniProt P08476)
  Kd: 100 nM
